Test results as given in patent US20180142032A1 (Sanofi, published 2018).
Changes are numbered by the printed parent chain. Like-named read-outs stand apart in the source and are kept apart here.

T1: human LAMP1 at the cell surface (human, UniProt P11279 29-417)
T1 sequence: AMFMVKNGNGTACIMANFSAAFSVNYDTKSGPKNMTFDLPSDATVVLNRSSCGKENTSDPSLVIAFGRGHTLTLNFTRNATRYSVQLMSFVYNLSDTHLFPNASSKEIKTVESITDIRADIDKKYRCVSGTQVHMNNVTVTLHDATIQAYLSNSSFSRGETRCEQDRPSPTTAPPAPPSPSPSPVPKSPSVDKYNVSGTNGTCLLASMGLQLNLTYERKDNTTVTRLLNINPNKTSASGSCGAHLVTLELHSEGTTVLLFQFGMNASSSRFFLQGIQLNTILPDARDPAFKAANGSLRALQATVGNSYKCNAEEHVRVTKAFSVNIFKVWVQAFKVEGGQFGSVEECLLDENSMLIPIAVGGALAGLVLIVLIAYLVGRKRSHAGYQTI

T2: cynomolgus monkey LAMP1 at the cell surface (cynomolgus monkey, UniProt P11279 29-417 (human entry))
T2 construct: also called cynoLAMP1; cynomolgus LAMP1
T2 chain: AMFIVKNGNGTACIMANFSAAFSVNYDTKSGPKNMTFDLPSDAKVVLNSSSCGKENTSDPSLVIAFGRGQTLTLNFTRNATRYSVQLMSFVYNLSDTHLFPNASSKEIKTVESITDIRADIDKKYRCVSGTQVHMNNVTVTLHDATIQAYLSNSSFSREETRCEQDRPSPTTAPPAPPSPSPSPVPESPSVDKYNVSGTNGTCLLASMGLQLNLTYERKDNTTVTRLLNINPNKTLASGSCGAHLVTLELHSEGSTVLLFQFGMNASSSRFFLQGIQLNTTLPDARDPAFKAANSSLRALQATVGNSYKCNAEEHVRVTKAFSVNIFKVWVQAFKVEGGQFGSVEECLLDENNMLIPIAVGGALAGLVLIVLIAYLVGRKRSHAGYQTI

T3: LAMP1::histag (human, UniProt P11279 29-382)
T3 construct: extracellular domain without signal peptide, C-terminal 6 His tag, made in HEK293 cells; also called recombinant human LAMP1; human LAMP1 (29-382)
T3 sequence: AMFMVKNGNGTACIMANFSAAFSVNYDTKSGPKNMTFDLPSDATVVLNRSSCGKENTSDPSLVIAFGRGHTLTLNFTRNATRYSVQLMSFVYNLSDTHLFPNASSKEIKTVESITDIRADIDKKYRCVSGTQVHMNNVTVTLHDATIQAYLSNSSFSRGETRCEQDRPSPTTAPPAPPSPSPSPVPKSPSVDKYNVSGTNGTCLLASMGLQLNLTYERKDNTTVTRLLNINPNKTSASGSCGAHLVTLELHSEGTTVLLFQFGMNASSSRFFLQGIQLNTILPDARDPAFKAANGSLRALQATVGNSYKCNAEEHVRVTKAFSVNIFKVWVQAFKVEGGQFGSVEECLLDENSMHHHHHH

T4: mLAMP1_L12_LAMP1_L34::histag (mouse/human hybrid)
T4 construct: mouse LAMP1 (25-189) and human LAMP1 (196-382), His tag; also called Loop1-2: mLAMP1 Loop3-4: hLAMP1
T4 chain: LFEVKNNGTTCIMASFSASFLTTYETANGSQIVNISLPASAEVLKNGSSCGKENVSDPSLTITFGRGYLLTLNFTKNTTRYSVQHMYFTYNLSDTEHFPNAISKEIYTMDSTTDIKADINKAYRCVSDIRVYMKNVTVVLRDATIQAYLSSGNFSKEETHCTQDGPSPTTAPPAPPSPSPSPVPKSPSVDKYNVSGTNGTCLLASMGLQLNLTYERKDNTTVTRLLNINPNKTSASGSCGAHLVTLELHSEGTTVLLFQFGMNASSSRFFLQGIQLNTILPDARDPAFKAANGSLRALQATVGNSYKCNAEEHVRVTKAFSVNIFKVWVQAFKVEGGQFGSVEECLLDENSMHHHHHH

T5: mLAMP1::histag (mouse, UniProt P11438 25-369)
T5 construct: also called mouse LAMP1 (25-369); Mouse LAMP1
T5 sequence: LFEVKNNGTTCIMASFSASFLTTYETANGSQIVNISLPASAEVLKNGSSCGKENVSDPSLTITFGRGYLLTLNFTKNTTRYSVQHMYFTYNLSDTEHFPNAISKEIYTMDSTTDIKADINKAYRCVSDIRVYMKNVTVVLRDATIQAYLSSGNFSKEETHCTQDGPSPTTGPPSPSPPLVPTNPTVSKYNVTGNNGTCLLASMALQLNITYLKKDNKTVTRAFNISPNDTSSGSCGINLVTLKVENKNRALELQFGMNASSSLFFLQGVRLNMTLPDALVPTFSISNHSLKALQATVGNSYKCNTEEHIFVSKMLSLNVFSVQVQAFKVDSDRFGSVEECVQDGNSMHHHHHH

T6: mLAMP1_L1_LAMP1_L234::histag (mouse/human hybrid)
T6 construct: also called Loop1: mLAMP1 Loop2-4: hLAMP1
T6 chain: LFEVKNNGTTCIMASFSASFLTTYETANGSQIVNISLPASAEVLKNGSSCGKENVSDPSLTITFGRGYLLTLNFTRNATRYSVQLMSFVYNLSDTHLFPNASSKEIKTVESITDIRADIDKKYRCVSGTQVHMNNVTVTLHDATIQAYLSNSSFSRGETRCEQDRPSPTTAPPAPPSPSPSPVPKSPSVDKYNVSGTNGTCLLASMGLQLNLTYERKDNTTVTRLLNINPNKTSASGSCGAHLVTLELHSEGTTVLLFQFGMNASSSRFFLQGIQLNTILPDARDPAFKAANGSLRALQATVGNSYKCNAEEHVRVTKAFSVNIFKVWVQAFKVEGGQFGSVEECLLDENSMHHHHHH

T7: LAMP1_mL1_hL234_ΔGYQTI (mouse; human)
T7 construct: on cells; also called pXL5668
T7 chain: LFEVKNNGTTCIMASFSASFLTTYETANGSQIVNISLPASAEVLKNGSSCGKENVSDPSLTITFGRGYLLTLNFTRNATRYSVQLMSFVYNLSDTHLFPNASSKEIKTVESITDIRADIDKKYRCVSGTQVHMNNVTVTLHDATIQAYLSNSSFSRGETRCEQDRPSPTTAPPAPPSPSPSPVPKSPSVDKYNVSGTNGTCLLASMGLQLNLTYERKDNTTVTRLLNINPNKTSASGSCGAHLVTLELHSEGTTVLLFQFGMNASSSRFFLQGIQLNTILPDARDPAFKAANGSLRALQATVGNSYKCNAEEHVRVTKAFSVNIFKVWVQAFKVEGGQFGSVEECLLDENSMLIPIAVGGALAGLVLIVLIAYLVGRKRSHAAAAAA

T8: hLAMP1_ΔGYQTI (human, UniProt P11279 29-412)
T8 construct: also called pXL5626
T8 sequence: T1 sequence with G385A, Y386A, Q387A, T388A, I389A

B1: DM4-SPDB-huMAb1_1 (antibody, human IgG1, kappa)
heavy: not shown
light: DIQMTQSPSSLSASVGDRVTITCKASQDIDRYMAWYQDKPGKAPRLLIHDTSTLQSGVPSRFSGSGSGRDYTLTISNLEPEDFATYYCLQYDNLWTFGGGTKVEIKRTVAAPSVFIFPPSDEQLKSGTASVVCLLNNFYPREAKVQWKVDNALQSGNSQESVTEQDSKDSTYSLSSTLTLSKADYEKHKVYACEVTHQGLSSPVTKSFNRGEC
modifications: DM4 linked through SPDB, average DAR 3.4 per antibody; sites not stated
notes: antibody drug conjugate of huMAb1_1
B2: chMAb1 (antibody, human IgG1, kappa)
heavy: not shown
light: DIQMTQSPPSLSASLGGKVTITCKASQDIDRYMAWYQDKPGKGPRLLIHDTSTLQPGIPSRFSGSGSGRDYSFSISNLEPEDIATYYCLQYDNLWTFGGGTKLEIKRTVAAPSVFIFPPSDEQLKSGTASVVCLLNNFYPREAKVQWKVDNALQSGNSQESVTEQDSKDSTYSLSSTLTLSKADYEKHKVYACEVTHQGLSSPVTKSFNRGEC
notes: chimeric, human IgG1, Ckappa; also called MAb1 (chimeric)
B3: chMAb3 (antibody, human IgG1, kappa, V domains shown)
VH: QIQLVQSGPELKKPGETVKISCKASGYIFTNYGMNWVKQAPGKGLKWMGWINTYTGESRYADDFKGRFALSLETSASTAYLQINNLENEDMATYFCAREDYYGNSPWFFDVWGAGTTVTVSS
VL: DIQMTQTTSSLSASLGDRVTISCNASQGINKYLNWYQQKPDGTVKLLIYYTSTLHSGVPSRFSGSGSGTDYSLTINNLEPEDIATYYCQQYTKLPFTFGSGTKLEIKR
notes: chimeric, human IgG1, Ckappa

Tests used:
[1] = molecular target: T1, human LAMP1 at the cell surface; assay: cell-based or functional assay
[2] = molecular target: T2, cynomolgus monkey LAMP1 at the cell …; assay: flow cytometry
[3] = molecular target: T2, cynomolgus monkey LAMP1 at the cell …; assay: flow cytometry, HEK293 cynoLAMP1 clone 44
[4] = molecular target: T1, human LAMP1 at the cell surface; assay: flow cytometry, HCT116 huLAMP1 clone 8
Procedure: HCT116 cells were infected by a lentiviral vector allowing stable integration of the human or the cynomolgus LAMP1 CDS in genomic DNA of cells. Individual clones with different densities of human or cynomolgus LAMP1 cell surface localization were derived from a pool of HCT116 infected cells. […] 100 μL/well of goat anti-human IgG conjugated with Alexa488 (Invitrogen; # A11013) was added for 1 h at 4° C. and washed two times with PBS 1% BSA. The antibody binding was evaluated after centrifugation and resuspension of cells in 100 μl fixing solution (paraformaldehyde at 4% in PBS). Samples were read using Galaxy® Flow Cytometry System (Partec). EC50 values were estimated using BIOST@T-SPEED software.

LAMP1::histag = molecular target: T3, LAMP1::histag; assay: ELISA on secreted human LAMP1
[5] = molecular target: T4, mLAMP1_L12_LAMP1_L34::histag; assay: ELISA
mLAMP1::histag = molecular target: T5, mLAMP1::histag; assay: ELISA
[6] = molecular target: T1, human LAMP1 at the cell surface; assay: flow cytometry, HCT116 huLAMP1 clone 8; remark: listed apart in the source
Procedure: 100 μL/well of goat anti-human IgG conjugated with Alexa488 (Invitrogen; # A11013) was added for 1 h at 4° C. and washed two times with PBS 1% BSA. The antibody binding was evaluated after centrifugation and resuspension of cells in 100 ul fixing solution (paraformaldehyde at 4% in PBS). Samples were read using Galaxy® Flow Cytometry System (Partec).

[7] = molecular target: T1, human LAMP1 at the cell surface; assay: cell-based or functional assay; remark: listed apart in the source
[8] = molecular target: T6, mLAMP1_L1_LAMP1_L234::histag; assay: ELISA
LAMP1_mL1_hL234_ΔGYQTI = molecular target: T7, LAMP1_mL1_hL234_ΔGYQTI; assay: flow cytometry, transfected 293-F cells
hLAMP1_ΔGYQTI = molecular target: T8, hLAMP1_ΔGYQTI; assay: flow cytometry, transfected 293-F cells

Binder	cytotoxicity IC50, HCT116 huLAMP1 clone 8 [1]	Ratio of EC50s (cynoLAMP1 against huLAMP1) [2]	EC50 [3]	EC50 [4]	EC50 (LAMP1::histag)	binding result [5]	binding result (mLAMP1::histag)	EC50 [6]	ADCC EC50, NK batch 67125626389 [7]	ADCC EC50, NK batch 67125903091 [7]	ADCC EC50, NK batch 67130127373 [7]	ADCC EC50, NK batch 67130494552 [7]	ADCC EC50, NK batch 67130496259 [7]	binding result [8]	binding result (LAMP1_mL1_hL234_ΔGYQTI)	mean fluorescence (hLAMP1_ΔGYQTI)
B1	0.1 nM	2.65	33.5 nM	12.7 nM												
B2					0.09 nM	no binding	no binding	6 nM	0.05 nM	0.76 nM	0.009 nM	0.2 nM	0.6 nM			
B3						no binding	no binding							no binding	no binding	640
